Data set [1] concerns the target T1, Full length murine CD25 on HEK cells (mouse, UniProt P01590 22-268).
T1 sequence (looked up): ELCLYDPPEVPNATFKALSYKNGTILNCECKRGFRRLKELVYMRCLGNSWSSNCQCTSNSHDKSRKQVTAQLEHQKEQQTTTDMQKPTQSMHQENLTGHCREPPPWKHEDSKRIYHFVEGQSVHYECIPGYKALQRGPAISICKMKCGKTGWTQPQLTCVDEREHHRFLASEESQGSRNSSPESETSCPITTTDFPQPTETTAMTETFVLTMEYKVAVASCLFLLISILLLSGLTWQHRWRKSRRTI
Kind of data set: cell-based or functional assay.

Data set [2] deals with the molecule itself. Kind of data set: SEC; Superdex 200 Increase 10/300 GL, 0.5 ml/min, 10 mM HEPES pH 7.3, 140 mM NaCl; 500 ul sample at 0.5 mg/ml; apparent molecular weights against Bio-Rad gel filtration standard.

B1: IL2-CD25 fusion protein (other, mouse)
chain: APTSSSTSSSTAEAQQQQQQQQQQQQHLEQLLMDLQELLSRMENYRNLKLPRMLTFKFYLPKQATELKDLQCLEDELGPLRHVLDLTQSKSFQLEDAENFISNIRVTVVKLKGSDNTFECQFDDESATVVDFLRRWIAFCQSIISTSPQGGGGSTRGGGGSTGGGGSGGGGSELCLYDPPEVPNATFKALSYKNGTILNCECKRGFRRLKELVYMRCLGNSWSSNCQCTSNSHDKSRKQVTAQLEHQKEQQTTTDMQKPTQSMHQENLTGHCREPPPWKHEDSKRIYHFVEGQSVHYECIPGYKALQRGPAISICKMKCGKTGWTQPQLTCVDEREHHRFLASEESQGSRNSSPESETSCPITTTDFPQPTETTAMTETFVLTMEYK
notes: signal peptide in the construct; murine IL-2, aa1-169 of NP_032392; 23-aa flexible linker; murine soluble CD25 (IL-2 receptor alpha chain), aa22-236 of NP_032393; Glycosylated; about 70 kDa on SDS-PAGE, reducing and non-reducing; By SEC it runs as higher order multimers; also called IL2-CD25 FP; FP; source: HEK293F, stably transfected (pIRES AcGFP1), expression supernatant, purified (Ni-NTA); not …
Regarding B1, in data set [1], the “proliferation ([3H]thymidine) of the IL-2 dependent mouse T cell line SJL-PLP.1; potency against mouse IL-2” value is ~320 fold less potent than IL-2. The binding result in data set [2] is reported as “binds”.

B2: CD25-IL2 fusion protein (other, mouse)
chain: ELCLYDPPEVPNATFKALSYKNGTILNCECKRGFRRLKELVYMRCLGNSWSSNCQCTSNSHDKSRKQVTAQLEHQKEQQTTTDMQKPTQSMHQENLTGHCREPPPWKHEDSKRIYHFVEGQSVHYECIPGYKALQRGPAISICKMKCGKTGWTQPQLTCVDEREHHRFLASEESQGSRNSSPESETSCPITTTDFPQPTETTAMTETFVLTMEYKGGGGSTRGGGGSTGGGGSGGGGSSAPTSSSTSSSTAEAQQQQQQQQQQQQHLEQLLMDLQELLSRMENYRNLKLPRMLTFKFYLPKQATELKDLQCLEDELGPLRHVLDLTQSKSFQLEDAENFISNIRVTVVKLKGSDNTFECQFDDESATVVDFLRRWIAFCQSIISTSPQ
notes: signal peptide in the construct; murine soluble CD25 (IL-2 receptor alpha chain), aa1-236 of NP_032393; 23-aa flexible linker; murine IL-2, aa20-169 of NP_032392; Glycosylated; about 70 kDa on SDS-PAGE, reducing and non-reducing; By SEC it runs as higher order multimers; also called CD25-IL2 FP; FP; source: HEK293F, stably transfected (pCMV), expression supernatant, purified (Ni-NTA); not shown: …
B2: the “proliferation ([3H]thymidine) of the IL-2 dependent mouse T cell line SJL-PLP.1; potency against mouse IL-2” value in data set [1] is ~32 fold less potent than IL-2. Moreover, in data set [2], the binding result is “binds”.

The record behind these values is PMC7538601, “Low-Zone IL-2 Signaling: Fusion Proteins Containing Linked CD25 and IL-2 Domains Sustain Tolerogenic Vaccination in vivo and Promote Dominance of FOXP3^+ Tregs in vitro” (Frontiers in Immunology, 2020).
